The values below come from paper PMC10764323.

The target in the assay is His-tAmSOD2 (Avicennia marina MnSOD, AmSOD2, without the mitochondrial transit peptide) (Avicennia marina). Description: SEC; gel filtration chromatography on a calibrated Biosil-250 analytical column, elution compared with standard proteins; native mass of almost 116 kDa against a single band of 26 kDa after SDS and DTT. On the technique in general: In gel filtration, larger molecules generally elute earlier.

In turn, “His-tAmSOD2 (Avicennia marina MnSOD, AmSOD2, without the mitochondrial transit peptide) (enzyme)” gave a stoichiometry N of 4.

As usually defined, the stoichiometry N is a count of units in the complex or per binding partner.
